This is an account of results in publication PMC5811407 (Thrombosis research, 2017).

In assay [1] the target is soluble form of human VLDL receptor (human) (UniProt P98155). The assay is described as follows: SPR. A general note: SPR reads the build-up and loss of mass on a sensor chip optically.
For assay [2], the target named is recombinant fibrinogen (Bβ1-66)2 fragment (human). Put plainly: ELISA. (In general: In an ELISA, binding on a coated surface is turned into a signal by an enzyme label.)
Another assay has as its target human fibrin (human) (UniProt P02679). Put plainly: ELISA.
The target in assay [3] is recombinant fibrin (β15-66)2 fragment (human). The assay is described as follows: ELISA.
Assay [4] deals with soluble form of human VLDL receptor (human, UniProt P98155 28-797). The assay is described as follows: ELISA.

“recombinant fibrinogen (Bβ1-66)2 fragment (domain or fragment)”: the Kd (usually the constant that tells how readily two partners part at equilibrium) in assay [1] came out at 254 nM.

As to “soluble form of human VLDL receptor (from UniProt P98155 28-797)”, the Kd was determined as 7.7 nM in assay [2], 7.2 nM with human fibrin (human) and 5.9 nM in assay [3].

B1: human receptor-associated protein (natural protein, UniProt P30533 35-357, looked up)
chain: YSREKNQPKPSPKRESGEEFRMEKLNQLWEKAQRLHLPPVRLAELHADLKIQERDELAWKKLKLDGLDEDGEKEARLIRNLNVILAKYGLDGKKDARQVTSNSLSGTQEDGLDDPRLEKLWHKAKTSGKFSGEELDKLWREFLHHKEKVHEYNVLLETLSRTEEIHENVISPSDLSDIKGSVLHSRHTELKEKLRSINQGLDRLRRVSHQGYSTEAEFEEPRVIDLWDLAQSANLTDKELEAFREELKHFEAKIEKHNHYQKQLEIAHEKLRHAESVGDGERVSRSREKHALLEGRTKELGYTVKKHLQDLSGRISRARHNEL
Regarding B1, in assay [4], the binding result is “binds”.
